Source: paper PMC314469, “Protein Interaction Networks by Proteome Peptide Scanning” (PLoS Biology, 2004)

T1: Abp1 SH3 (ABP1_YEAST), P15891
T1 chain: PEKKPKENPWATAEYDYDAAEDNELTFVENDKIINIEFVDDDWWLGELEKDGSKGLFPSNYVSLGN


Molecular target: T1, Abp1 SH3 (ABP1_YEAST), P15891
Test: SPOT array

| Binder | normalised SPOT signal, Boehringer light units (BLU); mean over the file's lines of this peptide |
| --- | --- |
| IAVGLDALNIPHKP [YHR033W 54-67] | 142 |
| IERQRLSMVTPSKP [YCL063W 140-153] | 2630 |
| HSAIQSLSFHPSKP [YJL069C 248-261] | 194 |
| IGRNIVKVVYPDKP [YJL025W 348-361] | 105 |
| HPEYTSKVLDPSKP [YBL039C 535-548] | 69.3 |
| IFPPIDDPLPFKP [YDR284C 246-258] | 62 |
| IDLVKHSPGAIKP [YHL030W 1303-1315] | 84.8 |
| HITSHLRVHVPLKP [YHL027W 198-211] | 285 |
| IIDSVKVPDSYKP [YDR058C 11-23] | 67.7 |
| HHHHHNRGSTPTKP [YDL025C 257-270] | 257 |
| HLFPPSSPVAGKP [YDR501W 3-15] | 69.7 |
| IESLTTIMRIPSKP [YBR250W 264-277] | 204 |
| IDFFLALFSDPARP [YHL005C 58-71] | 21.9 |
| HIGDMYGSVTPLRP [YHL002W 323-336] | 122 |
| IGNDRASPTNKKP [YGR097W 338-350] | 420 |
| HTMTSPPPVFNKP [YDL195W 1091-1103] | 1200 |
| HKSNVRQISNPKKP [YGL023C 320-333] | 98.3 |
| IDIPVRQPYSKKP [YDR422C 269-281] | 639 |
| IAVISVLPNFKKP [YBL004W 947-959] | 29 |
| HYPPGYDPTDPNRP [YER166W 1422-1435] | 176 |
| IHTSPHQPSDVKP [YDR227W 60-72] | 121 |
| HYDVDANIMPPPKP [YBR108W 510-523] | 108 |
| IFYSLIYPYLIKP [YIL067C 132-144] | 90.9 |
| IGLFGKDLSKPGRP [YBR243C 53-66] | 150 |
| HLYSMDPPLDRKP [YGL131C 343-355] | 172 |
| HNTSSSIPKISRP [YGR014W 1282-1294] | 765 |
| HKVKERDPNMPKRP [YDL002C 84-97] | 156 |
| HVPIVKRNKYPPRP [YDR195W 518-531] | 267 |
| HGTLTFPSDYPYKP [YER100W 55-68] | 124 |

Continued, values first:

| normalised SPOT signal, Boehringer light units (BLU); mean over the file's lines of this peptide | Binder |
| --- | --- |
| 89 | IEFKDVSFSYPTRP [YPL270W 493-506] |
| 105 | HVNLDKGKHVPSKP [YKL054C 142-155] |
| 91.6 | HPEYTSKVLEPSRP [YJR103W 537-550] |
| 87.4 | HLNNSDIHSQPNKP [YOR329C 803-816] |
| 100 | IIEKGPVPENLKP [YLR069C 260-272] |
| 131 | HLIAPLAGAVPTKP [YLR153C 435-448] |
| 80.8 | HSAATALPALRRP [YLR162W 19-31] |
| 57.8 | IILENFIVEVPDKP [YKL005C 358-371] |
| 129 | HTEQNNPPKPQKP [YOR290C 412-424] |
| 90.5 | IATSADYIFIPEKP [YMR205C 403-416] |
| 62.7 | HLSLTAVPSFLRP [YJR090C 735-747] |
| 508 | IHLTDKGFKMPKKP [YOR243C 79-92] |
| 124 | IDILGLAELAPGKP [YLR304C 721-734] |
| 163 | IFLNYEWPQWLRP [YOR336W 1160-1172] |
| 74.7 | IIPIAKTPLNARP [YJR001W 478-490] |
| 419 | HYAKNRTPGVMKP [YLR244C 308-320] |
| 85.4 | HKNFFSQPDINRP [YMR100W 263-275] |
| 2850 | IFLNRKKPALFRP [YNL230C 281-293] |
| 125 | IIHTDDLPEGIRP [YLR090W 426-438] |
| 202 | HVDEDGEPIDIKP [YLR429W 120-132] |
| 55.3 | HHNIDIDPLPRRP [YLR299W 81-93] |
| 82.1 | IHYKKNIEISPLKP [YML053C 112-125] |
| 63.2 | IEKTKDILSIPPKP [YOR219C 489-502] |
| 99.1 | IAIEREEDSIPSRP [YMR221C 251-264] |
| 118 | IDRIPPPTGRPDKP [YLR289W 221-234] |
| 2090 | HMTHNRKPAEPTKP [YML075C 1020-1033] |
| 21.1 | IGSFITINIVPWRP [YLR101C 109-122] |
| 197 | IAHFNYLPPTIRP [YKR099W 624-636] |
| 61 | HTDDLPEGIRPFKP [YLR090W 428-441] |
